Experiments:
[1] = target: human serum albumin (human) (UniProt P02768); assay: solution ELISA screen (luminescence)
[2] = target: human serum albumin (human) (UniProt P02768); assay: primary solution ELISA screen

human serum albumin (human), sequence (P02768 25-609 limits assumed): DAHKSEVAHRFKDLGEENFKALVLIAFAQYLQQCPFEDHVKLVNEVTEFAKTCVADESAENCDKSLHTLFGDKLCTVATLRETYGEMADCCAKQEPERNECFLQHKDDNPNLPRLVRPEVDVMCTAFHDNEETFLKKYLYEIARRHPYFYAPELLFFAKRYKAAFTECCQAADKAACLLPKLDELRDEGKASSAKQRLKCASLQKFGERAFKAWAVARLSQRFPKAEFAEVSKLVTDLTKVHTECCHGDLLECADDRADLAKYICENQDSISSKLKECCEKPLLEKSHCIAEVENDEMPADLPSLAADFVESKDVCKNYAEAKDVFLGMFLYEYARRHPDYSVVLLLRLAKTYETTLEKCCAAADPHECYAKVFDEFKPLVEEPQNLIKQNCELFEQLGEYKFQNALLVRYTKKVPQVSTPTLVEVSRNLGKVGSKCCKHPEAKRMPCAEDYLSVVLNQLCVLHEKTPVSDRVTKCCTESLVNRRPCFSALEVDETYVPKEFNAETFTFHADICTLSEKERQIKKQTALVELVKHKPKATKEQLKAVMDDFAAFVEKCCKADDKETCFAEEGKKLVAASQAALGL

| Binder | RLU [1] | RLU [2] |
| --- | --- | --- |
| SEQ ID NO 241 (designed binder, not shown: small tags and cut ends) MLPAPKNLVVSRVTEDSARLSWTAPDAAFDSFFIGYLEPQPPGEAIHLGVPGSERSYDLTGLKPGTEYNVTIQGVKGGFPSIPLFASFTT | 26600 RLU |  |
| SEQ ID NO 242 (designed binder, not shown: small tags and cut ends) MLPAPKNLVVSRVTEDSARLSWTAPDAAFDSFYIAYAEPRPDGEAIQLLVPGSERSYDLTGLKPGTEYSVLIHGVKGGLLSSPLYAAFTT | 20400 RLU |  |
| SEQ ID NO 80 (designed binder, not shown: small tags and cut ends) MLPAPKNLVVSRVTEDSARLSWTAPDAAFDSFWIDYEEEGVIGEAIYLHVPGSERSYDLTGLKPGTEYVVKIHGVKGGHPSHPLVAVFTT |  | 33600 RLU |
| SEQ ID NO 81 (designed binder, not shown: small tags and cut ends) MLPAPKNLVVSRVTEDSARLSWQGVARAFDSFLITYVELRHLGEAIVLTVPGSERSYDLTGLKPGTEYPVWIQGVKGGSPSAPLSAEFTT |  | 9850 RLU |
| SEQ ID NO 82 (designed binder, not shown: small tags and cut ends) MLPAPKNLVVSRVTEDSARLSWTAPDAAFDSFLIPYAETSPSGEAIVLTVPGSERSYDLTGLKPGTEYSVLIHGVKGGDYSSPLSAIFTT |  | 14800 RLU |
| SEQ ID NO 83 (designed binder, not shown: small tags and cut ends) MLPAPKNLVVSRVTEDSARLSWTAPDAAFDSFPIAYAEPRPDGEAIVLTVPGSERSYDLTGLKPGTEYSVLIHGVKGGLLSSPLSAISTT |  | 111000 RLU |
| SEQ ID NO 84 (designed binder, not shown: small tags and cut ends) MLPAPKNLVVSRVTEDSARLSWQGVARAFDSFSILYLELTPKGEAIVLTVPGSERSYDLTGLKPGTEYPVWIQGVKGGSPSAPLSAEFTT |  | 127000 RLU |
| SEQ ID NO 85 (designed binder, not shown: small tags and cut ends) MLPAPKNLVVSRVTEDSARLSWTAPDAAFDSFIIEYFEPIPIGEAIVLTVPGSERSYDLTGLKPGTEYAVNIYGVKGGYLSHPLSAIFTT |  | 6350 RLU |
| SEQ ID NO 87 (designed binder, not shown: small tags and cut ends) MLPAPKNLVVSRVTEDSARLSWTAPDAAFDSFAIEYTEFLYSGEAIVLTVPGSERSYDLTGLKPGTEYGVPINGVKGGFVSPPLSAIVTT |  | 3650 RLU |
| SEQ ID NO 88 (designed binder, not shown: small tags and cut ends) MLPAPKNLVVSRVTEDSARLSWTAPDAAFDSFPIKYREVLRCGEAIVLTVPGSERSYDLTGLKPGTEYTVPITGVKGGFGSSPLSAIFTT |  | 24200 RLU |
| SEQ ID NO 89 (designed binder, not shown: small tags and cut ends) MLPAPENLVVSRVTEDSARLSWTAPDAAFDSFWIEYYEGVIQGEAIVLTVPGSERSYDLTGLKPGTEYFVAIWGVKGGKWSVPLSAIFTT |  | 6500 RLU |
| SEQ ID NO 12 (designed binder, not shown: small tags and cut ends) MLPAPKNLVVSRVTEDSARLSWTAPDAAFDSFFIPYAEPSPTGEAIVLTVPGSERSYDLTGLKPGTEYSVLIHGVKGGHLSDPLSAISTT |  | 49000 RLU |
| SEQ ID NO 90 (designed binder, not shown: small tags and cut ends) MLPAPKNLVVSRVTEDSARLSWQGVARAFDSFLITYREQIFAGEVIVLTVPGSERSYDLTGLKPGTEYPVWIQGVKGGSPSAEFTT |  | 12400 RLU |
| SEQ ID NO 93 (designed binder, not shown: small tags and cut ends) MLPAPKNLVVSRVTEDSARLSWTAPDAAFDSFAIEYYEPVPAGEAIYLDVPGSERSYDLTGLKPGTEYDVTIYGVKGGYYSHPLFASFTT |  | 4750 RLU |
| SEQ ID NO 94 (designed binder, not shown: small tags and cut ends) MLPAPKNLVVSEVTEDSARLSWQGVARAFDSFLITYREQIFAGEVIVLTVPGSERSYDLTGLKPGTEYPVWIQGVKGGSPSAPLSAIFTT |  | 87200 RLU |
| SEQ ID NO 96 (designed binder, not shown: small tags and cut ends) MSLPAPKNLVVSRVTEDSARLSWTAPDAAFDSFPIAYLEVFYEGEAIVLTVPGSERSYDLTGLKPGTEYQVPIEGVKGGAMSLPLSAIFTT |  | 15200 RLU |
| SEQ ID NO 97 (designed binder, not shown: small tags and cut ends) MLPAPKNLVVSRVTEDSARLSWTAPDAAFDSFHIWYEEETTIGEAIYLHVPGSERSYDLTGLKPGTEYEVHITGVKGGPYSRPLFANFTT |  | 6500 RLU |
| SEQ ID NO 99 (designed binder, not shown: small tags and cut ends) MLPAPKNLVVSRVTEDSARLSWTAPDAAFDSFFIPYAEPSPTGEAIVLTVPGSERSYDLTGLKPGTEYSVLIHGVKGGHLSDPLSVIFTT |  | 9850 RLU |
| SEQ ID NO 13 (designed binder, not shown: small tags and cut ends) MLPAPKNLVVSRVTEDSARLSWTAPDAAFDSFLIAYPEDGFRGEAIVLTVPGSERSYDLTGLKPGTEYPVPILGVKGGGGSGPLSAIFTT |  | 24600 RLU |
| SEQ ID NO 100 (designed binder, not shown: small tags and cut ends) MLPAPKNLVVSRVTEDSARLSWTAPDAAFDSFYIWYEEVMYLGEAIVLTVPGSERSYDLTGLKPGTEYNVPIPGVKGGHSSPPLSAIFTT |  | 5150 RLU |
| SEQ ID NO 102 (designed binder, not shown: small tags and cut ends) MLPAPKNLVVSRVTEDSARLSWQGVARAFDSFLITYREQIFAGEVIVLTVPGSERSYDLTGLKPGTEYPVWIQGVKGGSPSAPLSAEFTT |  | 39700 RLU |

| Binder | RLU [1] | RLU [2] |
| --- | --- | --- |
| SEQ ID NO 15 (designed binder, not shown: small tags and cut ends) MLPAPKNLVVSRVTEDSARLSWQGVARAFDSFLITYREQIFAGEVIVLTVPGSERSYDLTGLKPGTECPVWIQGVKGGSPSAPLSAEFTT |  | 14400 RLU |
| SEQ ID NO 17 (designed binder, not shown: small tags and cut ends) MLPAPKNLVVSRVTEDSARLSWTAPDAAFDSFPILYTECVYRGEAIVLTVPGSERSYDLTGLKPGTEYHVPITGVKGGGGSWPLSAIFTT |  | 3650 RLU |
| SEQ ID NO 18 (designed binder, not shown: small tags and cut ends) MLPAPKNLVVSRVTEDSARLSWTAPDAAFDSFNIMYHEIIYVGEAIVLTVPGSERSYDLTGLKPGTEYPVPIEGVKGGGTSGPLSAIFTT |  | 10400 RLU |
| SEQ ID NO 19 (designed binder, not shown: small tags and cut ends) MLPAPKNLVVSRVTEDSARLSWTAPDAAFDSFAITYTEAALCGEAIVLTVPGSERSYDLTGLKPGTEYPVPINGVKGGGTSGPLSAIFTT |  | 17900 RLU |
| SEQ ID NO 2 (designed binder, not shown: small tags and cut ends) MLPAPKNLVVSEVTEDSARLSWQGVARAFDSFMINYSELFWMGEAIVLTVPGSERSYDLTGLKPGTEYVVRIKGVKGGKGSWPLHAHFTT |  | 28400 RLU |
| SEQ ID NO 20 (designed binder, not shown: small tags and cut ends) MLPAPKNLVVARVTEDSARLSWTAPDAAIDSFPIDYSEYWWGGEAIVLTVPGSERSYDLTGLKPGTEYPVLITGVKGGYRSGPLSAIFTT |  | 18400 RLU |
| SEQ ID NO 21 (designed binder, not shown: small tags and cut ends) MLPAPKNLVVSRVTEDSARLSWTAPDAAFDSFSIRYNEFIVAGEAIVLTVPGSERSYDLTGLKPGTEYDVPIAGVKGGGASWPLSAIVTT |  | 6850 RLU |
| SEQ ID NO 22 (designed binder, not shown: small tags and cut ends) MLPAPKNLVVSRVTEDSARLSWTAPDAAFDSFWYLELQFAGEAIVLTVPGSERSYDLTGLKPGTEYNVPITGVKGGIISFPLSAIFTT |  | 30000 RLU |
| SEQ ID NO 23 (designed binder, not shown: small tags and cut ends) MLPAPKNLVVSRVTEDSARLSWTAPDAAFDSFAIWYHEWYGDGEAIVLTVPGSERSYDLTGPKPGTEYRVRISGVKGGFESGPLSAIFTT |  | 12600 RLU |
| SEQ ID NO 24 (designed binder, not shown: small tags and cut ends) MLPAPKNLVVSRVTEDSARLSWTAPDAAFDSFMIRYQEGTRWGEAIVLTVPGSERSYDLTGLKPGTEYIVMIAGVKGGQISLPLSAIFTT |  | 6550 RLU |
| SEQ ID NO 25 (designed binder, not shown: small tags and cut ends) MLPAPKNLVVSRVTEDSARLSWTAPDAAFDSFPIWYLEKSYQGEAIVLTVPGSERSYDLTGLKPGTEYVVPIIGVKGGRDSCPLSAIFTT |  | 3850 RLU |
| SEQ ID NO 27 (designed binder, not shown: small tags and cut ends) MLPAPKNLVVSRVTEDSARLSWTAPDAAFDSFRISYAETVRQGEAIVLTVPGSERSYDLTVETGYRNWVMILGVKGGPGSLPLSAIFTT |  | 2350 RLU |
| SEQ ID NO 29 (designed binder, not shown: small tags and cut ends) MLPAPKNLVVSRVTEDSARLSWTAPDAAFDSFWIEYWEAVGFGEAIVLTVPGSERSYDLTGLKPGTEYFVGIYGVKGGYLSAPLSAIFTT |  | 3750 RLU |
| SEQ ID NO 3 (designed binder, not shown: small tags and cut ends) MLPAPKNLVVSRVTEDSARLSWTAPDAAFDSFNIEYAETRWYGEAIVLTVPGSERSYDLTGLKPGTEYVVPIDGVKGGIASKPLSAIFTT |  | 9950 RLU |
| SEQ ID NO 30 (designed binder, not shown: small tags and cut ends) MLPAPKNLVVSRVTEDSARLSWTAPDAAFDSFIIHYVEQQLIGEAIVLTVPGSERSYDLTGLKPGTEYPVPITGVKGGACSWPLSAIFTT |  | 4450 RLU |
| SEQ ID NO 31 (designed binder, not shown: small tags and cut ends) MLPAPKNLVVSRVTEDSARLSWTAPDAAFDSFTIEYSEHPIDGEAIPLFVPGSERSYDLTGLKPGTEYYVRIHGVKGGWFSHPLWAFFTT |  | 4650 RLU |
| SEQ ID NO 32 (designed binder, not shown: small tags and cut ends) MLPAPKNLVVSRVTEDSARLSWQGVARAFDSFLITYREQIFAGEVIVLTVPGSERSYDLTGLKPGTEYGVTIAGVKGGWRSKPLNAESTT |  | 4550 RLU |
| SEQ ID NO 33 (designed binder, not shown: small tags and cut ends) MLPAPKNLVVSRVTEDSARLSWTAPDAAFDSFGIAYVESYWYGEAIVLTVPGSERSYDLTGLKPGTEYNVPIYGVKGGDGSGPLSAIFTT |  | 2050 RLU |
| SEQ ID NO 34 (designed binder, not shown: small tags and cut ends) MLPAPKNLVVSRVTEDSARLSWTAPDAAFDSFYITYVELNLAGEAIVLTVPGSERSYDLTGLKPGTEYPVPILGVKGGSLSQPLSAIFTT |  | 8100 RLU |
| SEQ ID NO 35 (designed binder, not shown: small tags and cut ends) MLPAPKNLVVSRVTEDSARLSWTAPDAAFDSFPISYIESIADGEAIVLTVPGSERSYDLTGLKPGTEYWVAIVGVKGGPFSWSLSAIVTT |  | 18800 RLU |
